In publication PMC9598796 (2022):

B1: DARPin #3 (designed binder)
chain: GKKLLEAARAGQDDEVRILMANGADVNACDSNGRTPLHLAAVRGHLEIVEVLLKNGADVNAWDVIGKTPLHLAADGGHLEIVEVLLKNGADVNAWDLIGRTPLHLAALDGHLEIVEVLLEHGADVNAYDRPGHTPLHLAARRGHLEIVEVLLKYGADVNAQDKFGKTAFDISIDNGNEDLAEILQ
B2: dimeric DARPin SD5 (#3-SHT) (designed binder)
chain: GKKLLEAARAGQDDEVRILMANGADVNACDSNGRTPLHLAAVRGHLEIVEVLLKNGADVNAWDVIGKTPLHLAADGGHLEIVEVLLKNGADVNAWDLIGRTPLHLAALDGHLEIVEVLLEHGADVNAYDRPGHTPLHLAARRGHLEIVEVLLKYGADVNAQDKFGKTAFDISIDNGNEDLAEILQGGGGSGGGGSGGGGSGGGGSGKKLLEAARAGQDDEVRILVANGADVNAGDPFGFTPLHLAALYGHLEIVEVLLKNGADVNAHEEYGFTPLHLAAVVSHMEIVEVLLNNGADVNARDNQGGSPLHLASHTGHLEIVEVLLKQGADVNAQDKFGKTAYDISIDIGNEDLAEILQ

Target: biotinylated Stx2a holotoxin (Shiga toxin-producing E. coli (STEC), UniProt P09385;P09386)
Experiment: BLI

Chain of biotinylated Stx2a holotoxin (P09385 23-319, chain 1 of 2): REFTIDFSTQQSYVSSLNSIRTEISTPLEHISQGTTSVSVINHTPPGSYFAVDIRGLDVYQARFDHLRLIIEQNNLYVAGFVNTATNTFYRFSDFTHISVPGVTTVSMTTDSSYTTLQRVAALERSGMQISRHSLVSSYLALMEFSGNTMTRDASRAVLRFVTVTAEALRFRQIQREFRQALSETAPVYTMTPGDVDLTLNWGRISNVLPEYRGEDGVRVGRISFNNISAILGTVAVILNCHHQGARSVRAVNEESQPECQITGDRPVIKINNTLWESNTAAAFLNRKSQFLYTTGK
Chain of biotinylated Stx2a holotoxin (P09386 20-89, chain 2 of 2): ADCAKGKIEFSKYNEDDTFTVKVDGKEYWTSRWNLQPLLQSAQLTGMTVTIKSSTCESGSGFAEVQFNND

Row | Binder | koff
1 | B1 | 0.0438 s⁻¹
2 | B2 | 0.0126 s⁻¹
